Publication PMC3315474

Test system: HSF-3xFLAG (Heat Shock Factor) (Drosophila (species not stated))
Assay: EMSA
Conditions: Kd per HSF trimer, 20 mM HEPES pH 7.9, 100 mM NaCl, 3 mM MgCl2, 1 mM EDTA, 4 mM DTT, 10% glycerol, 0.1% NP-40, 300 ug/ml BSA, 10 ul, 200 amol probe, 30 min, room temperature

| Substance | Kd [pM] | other results |
| --- | --- | --- |
| HSE chr2L:5009892 (42.6 pM) | – | Kd (Methods print 42.7 pM): 42.6 pM |
| HSE chr2R:3529792 (308 pM) | 308 | – |
| HSE chr3L:4073542 (97.5 pM) | 97.5 | – |
| HSE chr3L:13470978 (221 pM) | – | Kd (HSF up to 1.5 nM monomer): 221 pM |
| HSE chrX:3380775 (224 pM) | 224 | – |
